We go through three molecules from US20240124607A1 (Merck Sharp & Dohme, published 2024).

One experiment concerns the target T1, CEACAM5 A1-B1-Fc (human, UniProt P06731 145-322, limits assumed).
T1 construct: also called A1-B1 domain
T1 sequence: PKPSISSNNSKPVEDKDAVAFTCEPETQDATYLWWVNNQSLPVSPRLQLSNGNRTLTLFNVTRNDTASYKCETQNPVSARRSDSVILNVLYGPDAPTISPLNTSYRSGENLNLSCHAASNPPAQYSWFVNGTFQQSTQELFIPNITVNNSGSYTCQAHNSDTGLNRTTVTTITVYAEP
In words: SPR, Fab capt, 25C. Here is the method:
If the protein domain was an Fc fusion, AB0411, AB0466, AB0264, or AB0621 were captured using an anti-human Fab antibody (Cytiva, #28958325) immobilized onto a CM5 chip. The various hCEACAM5 protein domains (N-term, A1-B1, A2, B2, A3, or B3) were titrated over the captured TriNKETs at 50 μL/min for 180 sec of association and 300 sec of dissociation. The assay was run at 25° C. in HBS-EP+ running buffer, pH 7.4. The surface of the CM5 chip was regenerated using […] glycine pH 2.1.

Experiment [1] has as its target T2, human CEACAM1 on Ba/F3 cells (human, UniProt P13688 35-526).
T2 construct: whole, on cells
T2 sequence (looked up): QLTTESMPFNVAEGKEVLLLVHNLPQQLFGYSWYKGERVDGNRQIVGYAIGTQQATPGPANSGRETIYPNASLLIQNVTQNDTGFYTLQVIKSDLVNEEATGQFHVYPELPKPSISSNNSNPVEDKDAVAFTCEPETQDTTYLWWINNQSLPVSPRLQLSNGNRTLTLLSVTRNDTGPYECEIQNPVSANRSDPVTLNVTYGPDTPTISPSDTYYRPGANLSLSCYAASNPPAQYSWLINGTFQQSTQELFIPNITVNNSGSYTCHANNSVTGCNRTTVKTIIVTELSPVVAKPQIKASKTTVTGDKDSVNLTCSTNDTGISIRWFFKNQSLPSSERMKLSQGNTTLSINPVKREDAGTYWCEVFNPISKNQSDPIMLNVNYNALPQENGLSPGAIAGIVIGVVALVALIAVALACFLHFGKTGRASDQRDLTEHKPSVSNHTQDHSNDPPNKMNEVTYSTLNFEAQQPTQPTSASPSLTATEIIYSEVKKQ
In words: flow cytometry on Ba/F3 cells expressing human CEACAM1, fold over background (FOB), 5-fold dilutions from 1600 nM. The method, then: To examine the binding specificity of the TriNKETs to CEACAM5 compared to other CEACAM family members, Ba/F3 cells were engineered to express one of human CEACAM1, CEACAM6, CEACAM8, or cynomolgus CEACAM5. CEACAM5 TriNKETs were evaluated by flow cytometry starting at 1600 nM followed by 7 5-fold dilutions.

For experiment [2], the target named is T3, human CEACAM5 on cells (human, UniProt P06731 35-685).
T3 construct: tumour cell lines with endogenous CEACAM5, or B16F10 engineered to express hCEACAM5; also called CEACAM5 on MKN-45, HPAF-II, SK-CO-1, LoVo, BxPC-3, Kato-III, LS-174T, ZR-75-30; hCEACAM5-B16F10
T3 sequence: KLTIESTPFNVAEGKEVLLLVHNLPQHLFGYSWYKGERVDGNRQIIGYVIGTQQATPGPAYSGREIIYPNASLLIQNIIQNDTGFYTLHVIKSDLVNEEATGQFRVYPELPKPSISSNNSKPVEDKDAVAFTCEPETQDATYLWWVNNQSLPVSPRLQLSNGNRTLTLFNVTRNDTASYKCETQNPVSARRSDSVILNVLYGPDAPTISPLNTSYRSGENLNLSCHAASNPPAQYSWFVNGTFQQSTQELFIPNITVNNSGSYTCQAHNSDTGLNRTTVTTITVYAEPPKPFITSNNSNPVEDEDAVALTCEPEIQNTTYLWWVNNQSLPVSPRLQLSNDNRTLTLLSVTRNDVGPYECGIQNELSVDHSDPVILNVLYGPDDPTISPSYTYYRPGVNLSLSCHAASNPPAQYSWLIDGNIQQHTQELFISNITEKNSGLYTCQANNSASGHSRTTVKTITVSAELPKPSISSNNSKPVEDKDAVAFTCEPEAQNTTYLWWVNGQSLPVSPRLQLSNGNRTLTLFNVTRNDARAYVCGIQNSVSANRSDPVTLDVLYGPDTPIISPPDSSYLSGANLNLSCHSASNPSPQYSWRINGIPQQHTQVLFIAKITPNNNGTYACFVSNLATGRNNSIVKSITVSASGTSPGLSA
The experiment is described as follows: flow cytometry, LoVo cells.

Experiment [3] deals with T3, human CEACAM5 on cells. The experiment is described as follows: flow cytometry, BxPC-3 cells.
The target in experiment [4] is T3, human CEACAM5 on cells. The experiment is described as follows: flow cytometry, MKN-45 cells.
The target of experiment [5] is T3, human CEACAM5 on cells. In words: flow cytometry, SK-CO-1 cells.
Experiment [6] has as its target T3, human CEACAM5 on cells. In words: flow cytometry, Kato-III cells.

B1: AB0621 F3' CEACAM5 TriNKET (bispecific antibody, human IgG1, kappa)
chain: DIVMTQSPDSLAVSLGERATINCKSSHSLLYGNFQNNYLAWYQQKPGQPPKLLIYWASTRESGVPDRFSGSGSGTDFTLTISSLQAEDVAVYYCQQYYSYPYTFGCGTKLEIKGGGGSGGGGSGGGGSGGGGSQVQLVQSGAEVKKPGASVKVSCKASGYTFTAYTIHWVRQAPGQCLEWMGYINPSSGYTEYNQKFKDRTTLTADTSISTAYMELSRLRSDDTAVYYCTREGGLLWFDYWGQGTLVTVSSGSDKTHTCPPCPAPELLGGPSVFLFPPKPKDTLMISRTPEVTCVVVDVSHEDPEVKFNWYVDGVEVHNAKTKPREEQYNSTYRVVSVLTVLHQDWLNGKEYKCKVSNKALPAPIEKTISKAKGQPREPRVYTLPPCRDELTKNQVSLTCLVKGFYPSDIAVEWESNGQPENNYKTTPPVLVSDGSFTLYSKLTVDKSRWQQGNVFSCSVMHEALHNHYTQKSLSLSPG
heavy: EVQLVESGGGLVKPGGSLRLSCAASGFTFSSYSMNWVRQAPGKGLEWVSSISSSSSYIYYADSVKGRFTISRDNAKNSLYLQMNSLRAEDTAVYYCARGAPIGAAAGWFDPWGQGTLVTVSSASTKGPSVFPLAPSSKSTSGGTAALGCLVKDYFPEPVTVSWNSGALTSGVHTFPAVLQSSGLYSLSSVVTVPSSSLGTQTYICNVNHKPSNTKVDKKVEPKSCDKTHTCPPCPAPELLGGPSVFLFPPKPKDTLMISRTPEVTCVVVDVSHEDPEVKFNWYVDGVEVHNAKTKPREEQYNSTYRVVSVLTVLHQDWLNGKEYKCKVSNKALPAPIEKTISKAKGQPREPQVCTLPPSRDELTENQVSLTCLVKGFYPSDIAVEWESNGQPENNYKTTPPVLDSDGSFFLYSWLTVDKSRWQQGNVFSCSVMHEALHNHYTQKSLSLSPG
light: DIQMTQSPSSVSASVGDRVTITCRASQGISSWLAWYQQKPGKAPKLLIYAASSLQSGVPSRFSGSGSGTDFTLTISSLQPEDFATYYCQQGVSFPRTFGGGTKVEIKRTVAAPSVFIFPPSDEQLKSGTASVVCLLNNFYPREAKVQWKVDNALQSGNSQESVTEQDSKDSTYSLSSTLTLSKADYEKHKVYACEVTHQGLSSPVTKSFNRGEC
In the experiment with CEACAM5 A1-B1-Fc, B1 had a Kd of 1.5 nM and a kon of 250000 M⁻¹ s⁻¹. Also, the binding result in experiment [1] is “no binding (tested: 1600 nM)”.

B2: AB0411 F3' CEACAM5 TriNKET (bispecific antibody, human IgG1, kappa)
chain: DIQLTQSPATLSVSPGERATLSCRASQSVSSSYLAWYQQKPGQAPRLLIYGASSRATGIPDRFSGSGSGTDFTLTISRLEPEDFAVYYCQQYNNWPLTFGCGTKVEIKGGGGSGGGGSGGGGSGGGGSQVQLVQSGGGLVQPGGSLRLSCAASGFTFTSYAMSWVRQAPGKCLEWVSAISGTGDSTFYADSVKGRFTFSRDNSKNTLYLQMNSLRAEDTAVYYCAKDLGWLQYGLFDYWGQGTLVTVSSGSDKTHTCPPCPAPELLGGPSVFLFPPKPKDTLMISRTPEVTCVVVDVSHEDPEVKFNWYVDGVEVHNAKTKPREEQYNSTYRVVSVLTVLHQDWLNGKEYKCKVSNKALPAPIEKTISKAKGQPREPRVYTLPPCRDELTKNQVSLTCLVKGFYPSDIAVEWESNGQPENNYKTTPPVLVSDGSFTLYSKLTVDKSRWQQGNVFSCSVMHEALHNHYTQKSLSLSPG
heavy: EVQLVESGGGLVKPGGSLRLSCAASGFTFSSYSMNWVRQAPGKGLEWVSSISSSSSYIYYADSVKGRFTISRDNAKNSLYLQMNSLRAEDTAVYYCARGAPIGAAAGWFDPWGQGTLVTVSSASTKGPSVFPLAPSSKSTSGGTAALGCLVKDYFPEPVTVSWNSGALTSGVHTFPAVLQSSGLYSLSSVVTVPSSSLGTQTYICNVNHKPSNTKVDKKVEPKSCDKTHTCPPCPAPELLGGPSVFLFPPKPKDTLMISRTPEVTCVVVDVSHEDPEVKFNWYVDGVEVHNAKTKPREEQYNSTYRVVSVLTVLHQDWLNGKEYKCKVSNKALPAPIEKTISKAKGQPREPQVCTLPPSRDELTENQVSLTCLVKGFYPSDIAVEWESNGQPENNYKTTPPVLDSDGSFFLYSWLTVDKSRWQQGNVFSCSVMHEALHNHYTQKSLSLSPG
light: DIQMTQSPSSVSASVGDRVTITCRASQGISSWLAWYQQKPGKAPKLLIYAASSLQSGVPSRFSGSGSGTDFTLTISSLQPEDFATYYCQQGVSFPRTFGGGTKVEIKRTVAAPSVFIFPPSDEQLKSGTASVVCLLNNFYPREAKVQWKVDNALQSGNSQESVTEQDSKDSTYSLSSTLTLSKADYEKHKVYACEVTHQGLSSPVTKSFNRGEC
B2: the EC50 came out at 3.25 nM with human CEACAM5 on cells [2]; 4.28 nM in the experiment with human CEACAM5 on cells [3]; 9.05 nM with human CEACAM5 on cells [4]; 8.67 nM in the experiment with human CEACAM5 on cells [5]; 1.17 nM with human CEACAM5 on cells [6]. Moreover, the “Max FOB” value was determined as 19 fold over background in the experiment with human CEACAM5 on cells [2]; 19 fold over background with human CEACAM5 on cells [3]; 107 fold over background with human CEACAM5 on cells [4]; 37 fold over background in the experiment with human CEACAM5 on cells [5]; 5 fold over background in the experiment with human CEACAM5 on cells [6].

B3: AB0264 F3' CEACAM5 TriNKET (bispecific antibody, human IgG1, kappa)
chain: DIVMTQSPDSLAVSLGERATINCKSSHSLLYGNFQNNYLAWYQQKPGQPPKLLIYWASTRESGVPDRFSGSGSGTDFTLTISSLQAEDVAVYYCQQYYSYPYTFGCGTKLEIKGGGGSGGGGSGGGGSGGGGSQVQLVQSGAEVKKPGASVKVSCKASGYTFTAYTIHWVRQAPGQCLEWMGYINPSSGYTEYNQKFKDRTTLTADTSIPTAYMELSRLRSDDTAVYYCTREGGLLWFDYWGQGTLVTVSSGSDKTHTCPPCPAPELLGGPSVFLFPPKPKDTLMISRTPEVTCVVVDVSHEDPEVKFNWYVDGVEVHNAKTKPREEQYNSTYRVVSVLTVLHQDWLNGKEYKCKVSNKALPAPIEKTISKAKGQPREPRVYTLPPCRDELTKNQVSLTCLVKGFYPSDIAVEWESNGQPENNYKTTPPVLVSDGSFTLYSKLTVDKSRWQQGNVFSCSVMHEALHNHYTQKSLSLSPG
heavy: EVQLVESGGGLVKPGGSLRLSCAASGFTFSSYSMNWVRQAPGKGLEWVSSISSSSSYIYYADSVKGRFTISRDNAKNSLYLQMNSLRAEDTAVYYCARGAPIGAAAGWFDPWGQGTLVTVSSASTKGPSVFPLAPSSKSTSGGTAALGCLVKDYFPEPVTVSWNSGALTSGVHTFPAVLQSSGLYSLSSVVTVPSSSLGTQTYICNVNHKPSNTKVDKKVEPKSCDKTHTCPPCPAPELLGGPSVFLFPPKPKDTLMISRTPEVTCVVVDVSHEDPEVKFNWYVDGVEVHNAKTKPREEQYNSTYRVVSVLTVLHQDWLNGKEYKCKVSNKALPAPIEKTISKAKGQPREPQVCTLPPSRDELTENQVSLTCLVKGFYPSDIAVEWESNGQPENNYKTTPPVLDSDGSFFLYSWLTVDKSRWQQGNVFSCSVMHEALHNHYTQKSLSLSPG
light: DIQMTQSPSSVSASVGDRVTITCRASQGISSWLAWYQQKPGKAPKLLIYAASSLQSGVPSRFSGSGSGTDFTLTISSLQPEDFATYYCQQGVSFPRTFGGGTKVEIKRTVAAPSVFIFPPSDEQLKSGTASVVCLLNNFYPREAKVQWKVDNALQSGNSQESVTEQDSKDSTYSLSSTLTLSKADYEKHKVYACEVTHQGLSSPVTKSFNRGEC
The molecule B3 registered a Kd in the experiment with CEACAM5 A1-B1-Fc of 1 nM. The kon with CEACAM5 A1-B1-Fc was 260000 M⁻¹ s⁻¹. For the same molecule, the EC50 in the experiment with human CEACAM5 on cells [2] turned out to be 22.1 nM; in the experiment with human CEACAM5 on cells [3], 30.5 nM; with human CEACAM5 on cells [4] it was 20.7 nM; in the experiment with human CEACAM5 on cells [5] it was 104 nM; in the experiment with human CEACAM5 on cells [6], 13.3 nM. Moreover, the “Max FOB” value stood at 14 fold over background with human CEACAM5 on cells [2]; 12 fold over background with human CEACAM5 on cells [3]; 60 fold over background with human CEACAM5 on cells [4]; 42 fold over background in the experiment with human CEACAM5 on cells [5]; 4 fold over background in the experiment with human CEACAM5 on cells [6]. For the same molecule, the binding result in experiment [1] was “no binding (tested: 1600 nM)”.
